For two molecules, Kd, T1/2 and OD results are on record in patent US20140099312A1.

The target of experiment [1] is Human PCSK9-myc-myc-his (human) (UniProt Q8NBP7). The experiment is described as follows: SPR, mAb captured on anti-mouse IgG, 25C. For orientation: Surface plasmon resonance follows binding to a sensor surface in real time, without labels.
For experiment [2], the target named is Chimeric protein #2 (hPro-mCat-mC-term-mmh) (human; mouse) (UniProt Q80W65). In words: ELISA, coated mAb, 1.2 nM antigen. In general terms: ELISA stands for enzyme-linked immunosorbent assay.
The next experiment deals with mouse PCSK9-mmh (mouse) (UniProt Q80W65). The experiment is described as follows: ELISA, coated mAb, 1.2 nM antigen.
For experiment [3], the target named is Chimeric protein #1 (mPro-hCat-mC-term-mmh) (mouse; human) (UniProt Q80W65). In words: ELISA, coated mAb, 1.2 nM antigen.
Experiment [4] has as its target Chimeric protein #3 (mPro-mCat-hC-term-mmh) (mouse; human). The experiment is described as follows: ELISA, coated mAb, 1.2 nM antigen (++ OD>1.0; + OD 0.4-1.0).
Experiment [5] concerns the target hPCSK9(D374Y)-mmh (human) (UniProt Q8NBP7). The description is as above.
Experiment [6] concerns the target Human PCSK9-myc-myc-his (human) (UniProt Q8NBP7). Described as above.
The target is the same in experiment [7]. The experiment is described as follows: SPR, mAb captured on anti-mouse IgG, 37C.

B1: H1M495 (antibody, from a related filing, V domains shown)
VH: EVQLVESGGGLVQPGRSLRLSCAASGFTFDDYAMHWVRQAPGKGLEWVSGINWNSGSIGYADSVKGRFTISRDNAKHSLYLQMNSLRPEDTALYYCVKEVTTGYYYGMDVWGQGTTVTVSS
VL: DIQLTQSPSFLSASVGDRVTITCWASQGISSYLAWYQKKPGKAPNLLIYDASTLQSGVPSRFSGSGSGTEFTLTLSSLQPEDFATYYCQQLNIYPFTFGPGTKVDIK
Take B1: the figures for the Kd in experiment [1] and in experiment [7] were 0.44 nM and 7.5 nM, respectively. Further, the figures for the T1/2 in experiment [1] and in experiment [7] were 222 min and 19 min, respectively. The OD was below 0.4 od in experiment [2]; below 0.4 od with mouse PCSK9-mmh (mouse); below 0.4 od in experiment [3]; above 1 od in experiment [4]; above 1 od in experiment [5]; above 1 od in experiment [6].

B2: H1M498 (antibody, from a related filing, V domains shown)
VH: EVQLVESGGGLVKPGGSLRLSCAASGFTFSSYSMDWVRQAPGKGLEWVSSISSSSSYIYYADSVKGRFTISRDTAKNSLYLQMNSLRDEDTAVYYCAREGSSRLFDYWGQGTLVTVSS
VL: DIQMTQSPSTLSASVGDRVTITCRASQSISSWLAWYQQRPGKAPKLLIYKASSLEGGVPSRFSGSGSGTEFTLTISSLQPEDFATYYCQQYNSYWYTFGQGTKLEIK
As to B2, the Kd in experiment [1] was 6.4 nM; in experiment [7], 7.5 nM. For the same molecule, the T1/2 in experiment [1] was found to be 30 min; in experiment [7], 14 min. Besides, the OD was below 0.4 od in experiment [2]; below 0.4 od with mouse PCSK9-mmh (mouse); below 0.4 od in experiment [3]; 0.4 to 1 od in experiment [4]; above 1 od in experiment [5]; above 1 od in experiment [6].

As a reminder, the Kd is the equilibrium constant for the complex coming apart.
